Results on 1 substance are retold here after paper PMC10810746.

The target in this assay is RbcL (large subunit of form I ribulose 1,5-bisphosphate carboxylase oxygenase) (Synechococcus sp. PCC 7335). As to the kind of experiment: cryo-EM structure; single-particle cryo-EM of form I Rubisco found in the same fraction; 2.35 Å, D4 symmetry.

One may read the stoichiometry N as the number of molecules, sites or subunits per partner or assembly. The substance “RbcL (large subunit of form I ribulose 1,5-bisphosphate carboxylase oxygenase) (enzyme)” returned a stoichiometry N of 8.
